Measured values taken from publication PMC5225439, “Nucleoplasmin-like domain of FKBP39 from Drosophila melanogaster forms a tetramer with partly disordered tentacle-like C-terminal segments” (Scientific Reports, 2017).

Columns and labels:
[1] = biological target: the molecule itself; assay: SEC-MALS; 100 μl of 1 mg/ml FKBP39 on Superdex 200 Increase 10/300 in buffer C (50 mM Na2HPO4, 150 mM NaCl, pH 7.0), 0.5 ml/min
[2] = biological target: the molecule itself; assay: AUC; sedimentation velocity, 20 °C, buffer C (50 mM Na2HPO4, 150 mM NaCl, pH 7.0), 0.2 and 0.5 mg/ml protein, 40,000 rpm, absorbance at 280 nm, continuous c(s) distribution in SEDFIT

B1: 39-kDa FK506-binding protein (FKBP39) from Drosophila melanogaster, full-length, with C-terminal 8x His-tag (natural protein, UniProt P54397 1-357, looked up)
chain: MSMFWGLNMKPERKYSQTIIKSFHISGVALDKGQEAKLYLAAEKQEYIVATVTKAIPQVALDLNFSKGDRIMFYTAGDASVSLLGYLHDIDSEDDEDDDQMTIENLLNSKAIKNSKKSEDDEDENESGEEDEEDTDDDSQIIEEYESFLENGEEEDDDDVDEDNEESGEEDEQDSDDSEAEEEQPKAKVAKLSPGASAKKSGKEQNGVAKKEEAKQQQKKKEKPEAKKEQPKAKEPAKQQPASKDPRTITGGVKIVDQVVGKGEEAKQGKRVSVYYIGRLQSNNKTFDSLLKGKPFKFALGGGEVIKGWDVGVAGMKVGGKRVITCPPHMAYGARGAPPKIGPNSTLVFEVELKAVH
notes: N-terminal NPL 1-86, central charged region 87-256, C-terminal FKBD 257-357; Cloned BamHI/HindIII into the modified vector pQE80L-XH; The forward primer puts TCG (Ser) before the FKBP39 ATG, so a few vector-derived residues precede the natural start; also called full-length FKBP39; recombinant FKBP39; source: E. coli BL21(DE3)pLysS, purified (Co2+-TALON resin, Superdex 200 SEC)
[1]
  stoichiometry N: 2
[2]
  stoichiometry N: 4
